Measurements published in paper PMC4387718, “In vivo biochemical analyses reveal distinct roles of β-importins and eEF1A in tRNA subcellular traffic” (Genes & Development, 2015).

T1: MORF (His6-HA epitope-ZZ protein A)-tagged Msn5 (S. cerevisiae, UniProt P52918 1-1224)
T1 construct: Msn5, beta-importin family member (yeast exportin-5 homolog), S. cerevisiae; Tagged protein is functional; also called Msn5-M; exportin-5 homolog; source: S. cerevisiae, endogenous promoter on a yeast episomal (YEp) vector, in cell extract
T1 sequence (looked up): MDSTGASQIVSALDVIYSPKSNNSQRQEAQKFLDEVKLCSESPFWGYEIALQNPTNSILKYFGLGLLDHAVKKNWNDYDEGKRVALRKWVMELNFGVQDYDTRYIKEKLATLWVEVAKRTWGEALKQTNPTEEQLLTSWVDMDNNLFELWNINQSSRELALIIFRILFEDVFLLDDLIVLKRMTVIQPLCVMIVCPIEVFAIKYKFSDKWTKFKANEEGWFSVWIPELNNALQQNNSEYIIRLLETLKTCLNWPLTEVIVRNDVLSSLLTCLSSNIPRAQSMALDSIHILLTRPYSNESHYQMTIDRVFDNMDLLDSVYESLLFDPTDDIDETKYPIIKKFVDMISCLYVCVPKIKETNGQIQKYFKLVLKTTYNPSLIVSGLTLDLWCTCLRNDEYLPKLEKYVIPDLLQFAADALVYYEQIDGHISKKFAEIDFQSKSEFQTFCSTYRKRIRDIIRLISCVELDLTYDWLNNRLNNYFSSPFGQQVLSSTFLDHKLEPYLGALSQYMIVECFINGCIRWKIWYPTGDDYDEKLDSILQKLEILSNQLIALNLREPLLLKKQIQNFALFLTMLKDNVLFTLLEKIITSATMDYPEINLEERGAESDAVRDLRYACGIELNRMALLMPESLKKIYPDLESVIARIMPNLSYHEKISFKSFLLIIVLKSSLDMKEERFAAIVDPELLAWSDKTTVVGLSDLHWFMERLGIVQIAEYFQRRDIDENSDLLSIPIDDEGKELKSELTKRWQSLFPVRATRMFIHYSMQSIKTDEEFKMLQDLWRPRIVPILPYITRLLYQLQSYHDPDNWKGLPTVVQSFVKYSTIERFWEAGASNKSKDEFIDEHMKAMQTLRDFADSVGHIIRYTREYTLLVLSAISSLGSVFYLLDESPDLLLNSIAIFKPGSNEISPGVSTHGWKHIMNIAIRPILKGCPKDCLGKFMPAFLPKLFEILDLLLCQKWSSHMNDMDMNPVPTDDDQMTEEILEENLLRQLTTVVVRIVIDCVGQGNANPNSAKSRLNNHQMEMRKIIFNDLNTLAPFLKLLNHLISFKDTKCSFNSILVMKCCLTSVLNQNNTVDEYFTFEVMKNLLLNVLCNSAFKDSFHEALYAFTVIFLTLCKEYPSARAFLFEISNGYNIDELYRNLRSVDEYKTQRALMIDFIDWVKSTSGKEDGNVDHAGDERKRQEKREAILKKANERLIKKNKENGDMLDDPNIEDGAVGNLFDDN


Tests used:
[1] = molecular target: T1, MORF (His6-HA epitope-ZZ protein …); experiment: co-IP; cells with RanGTP-locked mutant, without cross-linking; complex immunoprecipitated on beads first and then treated with RNase A (condition R*); Western blot with anti-eEF1A; details: partners not purified
[2] = molecular target: T1, MORF (His6-HA epitope-ZZ protein …); experiment: co-IP; cells with locked RanGTP, formaldehyde cross-linked; extract treated with RNase A prior to purification of the beta-importin on IgG beads; Western blot with anti-eEF1A; details: partners not purified

Binder | percent of copurified Tef1/2 relative to mock treatment [1] [%] | percent of copurified Tef1/2 relative to mock treatment [2] [%]
untagged Tef2 (natural protein, S. cerevisiae (endogenous in yeast), UniProt P02994 1-458, looked up, Tef2, yeast translation elongation factor 1 alpha (eEF1A), product of TEF2; Detected with anti-eEF1A; comigrates with Tef1-Myc; also called Tef1/2; eEF1A; source: endogenous, S. cerevisiae cell extract) MGKEKSHINVVVIGHVDSGKSTTTGHLIYKCGGIDKRTIEKFEKEAAELGKGSFKYAWVLDKLKAERERGITIDIALWKFETPKYQVTVIDAPGHRDFIKNMITGTSQADCAILIIAGGVGEFEAGISKDGQTREHALLAFTLGVRQLIVAVNKMDSVKWDESRFQEIVKETSNFIKKVGYNPKTVPFVPISGWNGDNMIEATTNAPWYKGWEKETKAGVVKGKTLLEAIDAIEQPSRPTDKPLRLPLQDVYKIGGIGTVPVGRVETGVIKPGMVVTFAPAGVTTEVKSVEMHHEQLEQGVPGDNVGFNVKNVSVKEIRRGNVCGDAKNDPPKGCASFNATVIVLNHPGQISAGYSPVLDCHTAHIACRFDELLEKNDRRSGKKLEDHPKFLKSGDAALVKFVPSKPMCVEAFSEYPPLGRFAVRDMRQTVAVGVIKSVDKTEKAAKVTKAAQKAAKK | ~40 | ~90
endogenously 3Myc-tagged Tef1 (natural protein, S. cerevisiae, UniProt P02994 1-458, looked up, Tef1, yeast translation elongation factor 1 alpha (eEF1A), product of TEF1; Detected with anti-eEF1A and anti-Myc; comigrates with untagged Tef2, so the anti-eEF1A signal called Tef1/2 is of both; also called Tef1-Myc; Tef1/2; source: endogenously tagged, S. cerevisiae cell extract) MGKEKSHINVVVIGHVDSGKSTTTGHLIYKCGGIDKRTIEKFEKEAAELGKGSFKYAWVLDKLKAERERGITIDIALWKFETPKYQVTVIDAPGHRDFIKNMITGTSQADCAILIIAGGVGEFEAGISKDGQTREHALLAFTLGVRQLIVAVNKMDSVKWDESRFQEIVKETSNFIKKVGYNPKTVPFVPISGWNGDNMIEATTNAPWYKGWEKETKAGVVKGKTLLEAIDAIEQPSRPTDKPLRLPLQDVYKIGGIGTVPVGRVETGVIKPGMVVTFAPAGVTTEVKSVEMHHEQLEQGVPGDNVGFNVKNVSVKEIRRGNVCGDAKNDPPKGCASFNATVIVLNHPGQISAGYSPVLDCHTAHIACRFDELLEKNDRRSGKKLEDHPKFLKSGDAALVKFVPSKPMCVEAFSEYPPLGRFAVRDMRQTVAVGVIKSVDKTEKAAKVTKAAQKAAKK | ~40 | ~90
